Results from patent US20140322736.

Tests used:
[1] = tested on: mouse mutant recombinant prethrombin-2
[2] = tested on: human mutant recombinant prethrombin-2

Substance | protease activity (fluorescence of the cleaved fluorogenic substrate (p-tosyl-Gly-Pro-Arg)2-rhodamine 110 over time) [1] | protease activity (fluorescence of the cleaved fluorogenic substrate (p-tosyl-Gly-Pro-Arg)2-rhodamine 110 over time) [2] | cleavage of the proenzyme [1]
wild type human α-thrombin (Sigma Aldrich) | in the presence of WT human α-thrombin, the protease activity increased considerably with time (FIG. 4, curves a, b), compared to the samples where only WT α-thrombin was added | in the presence of WT human α-thrombin, the protease activity increased considerably with time (FIG. 4, curves a, b), compared to the samples where only WT α-thrombin was added | 
α-thrombin immobilized on agarose (Thrombin CleanCleave Kit, Sigma-Aldrich) |  |  | Mouse mutant prethrombin-2 was cleaved using Thrombin CleanCleave™ Kit
